Numbering of substitutions follows the chain as printed. Names and notes keep the numbering of the source. Where two headings read alike, the source gives them in different places.
B1: Hu149-11G1m (antibody, human IgG1)
heavy: EVQLVESGGGLVQPGGSLKLSCAASGFTFNTYAMNWVRQASGKGLEWVGRIRSKSNFYATAYAASVKGRFTISRDDSKNTAYLQMNSLKTEDTAVYYCTRGREYGSSYAMDYWGQGTLVTVSSASTKGPSVFPLAPSSKSTSGGTAALGCLVKDYFPEPVTVSWNSGALTSGVHTFPAVLQSSGLYSLSSVVTVPSSSLGTQTYICNVNHKPSNTKVDKKVEPKSCDKTHTCPPCPAPELVGGPSVFLLPPKPKDTLMISRTPEVTCVVVDVSHEDPEVKFNWYVDGVEVHNAKTKPPEEQYNSTLRVVSVLTVLHQDWLNGKEYKCKVSNKALPAPIEKTISKAKGQPREPQVYTLPPSRDELTKNQVSLTCLVKGFYPSDIAVEWESNGQPENNYKTTPLVLDSDGSFFLYSKLTVDKSRWQQGNVFSCSVMHEALHNHYTQKSLSLSPGK
VL: DIVMTQSPLSLPVTPGEPASISCRSSKSLLHSNANTYLYWFLQKPGQSPQLLIYRMSNLASGVPDRFSGSGSGTDFTLKISRVEAEDVGVYYCMQHLEYPLTFGGGTKVELK
notes: also called Hu149-11G1m (ADCC enhanced variant with L235V/F243L/R292P/Y300L/P396L Fc mutations)
B2: Hu149-11 (antibody, human IgG1)
heavy: not shown
VL: B1 VL
notes: also called Hu149-11G1
B3: Hu149-4-mIgG2a (antibody, V domains shown)
VH: EVQLVESGGGLVQPGGSLKLSCAASGFTFNTYAMNWVRQASGKGLEWVGRIRSKSNFYATYYAASVKGRFTISRDDSKNTAYLQMNSLKTEDTAVYYCTRGRDYGSSYAMDYWGQGTLVTVSS
VL: B1 VL
B4: Hu149-12G1m (antibody, human IgG1)
heavy: B1 heavy with R102K
VL: B1 VL
B5: Hu149-9 mIgG2a (antibody, V domains shown)
VH: B3 VH with Y61A
VL: B1 VL

How the values were obtained:
[1] = biological target: T1, human CCR8 (human, UniProt P51685 1-355); experiment: cell-based or functional assay
T1 sequence (P51685 whole entry): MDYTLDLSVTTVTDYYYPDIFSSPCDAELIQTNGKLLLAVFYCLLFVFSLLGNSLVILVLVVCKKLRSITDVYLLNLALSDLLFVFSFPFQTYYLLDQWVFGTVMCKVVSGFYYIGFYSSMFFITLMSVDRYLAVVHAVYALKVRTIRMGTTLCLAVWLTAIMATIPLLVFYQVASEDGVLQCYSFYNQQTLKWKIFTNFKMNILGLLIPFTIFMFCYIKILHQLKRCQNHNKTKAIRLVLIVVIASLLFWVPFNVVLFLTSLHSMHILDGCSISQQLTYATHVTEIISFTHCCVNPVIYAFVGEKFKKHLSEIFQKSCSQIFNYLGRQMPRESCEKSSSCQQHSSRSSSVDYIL

[2] = biological target: T1, human CCR8; experiment: cell-based or functional assay; remark: listed apart in the source
[3] = biological target: human CCR8 tagged with ProLink (PK) (human, UniProt P51685 1-355); experiment: cell-based or functional assay
Sequence of human CCR8 tagged with ProLink (PK) (P51685 whole entry): as above

[4] = biological target: T1, human CCR8; experiment: cell-based or functional assay; remark: listed apart in the source
[5] = biological target: T1, human CCR8; experiment: flow cytometry on TALL-1 cells (endogenous CCR8)
Experimental: Briefly, a total of 5×10⁴ cells for each well were seeded in 96-well plates and washed with FACS buffer (DPBS containing 1.5% FBS) for once. Antibodies were prepared with 3-fold serial dilution ranging from 100 nM to 0.00508 nM in FACS buffer. Cells were incubated with 50 μL of diluted antibodies at 4° C. for 40 minutes. After primary antibody incubation, cells were washed twice by FACS buffer. Then, cells were stained by Alexa Flu647-labeled anti-human IgG Fc secondary antibody (Jackson ImmunoResearch, #109606170) at 1:500 dilution in FACS buffer for 40 minutes at 4° C. After 2 times wash with FACS buffer, flow cytometry (BD FACS Celesta) was performed to measure the binding affinities of antibodies.

[6] = biological target: T2, human CCR8 (human, UniProt P51685 1-355); experiment: cell-based or functional assay; remark: listed apart in the source
T2 sequence (P51685 whole entry): as above

[7] = biological target: T2, human CCR8; experiment: cell-based or functional assay; remark: listed apart in the source
[8] = biological target: T2, human CCR8; experiment: FACS on CHO-K1-human CCR8 cells
[9] = biological target: T2, human CCR8; experiment: FACS on CHO-K1-human CCR8 cells; remark: listed apart in the source
[10] = biological target: T3, cynomolgus CCR8 (cynomolgus, UniProt G7NYJ2 1-355); experiment: FACS on HEK293-cynomolgus CCR8 cells
T3 construct: whole, on cells
T3 sequence (G7NYJ2 entry or part of it): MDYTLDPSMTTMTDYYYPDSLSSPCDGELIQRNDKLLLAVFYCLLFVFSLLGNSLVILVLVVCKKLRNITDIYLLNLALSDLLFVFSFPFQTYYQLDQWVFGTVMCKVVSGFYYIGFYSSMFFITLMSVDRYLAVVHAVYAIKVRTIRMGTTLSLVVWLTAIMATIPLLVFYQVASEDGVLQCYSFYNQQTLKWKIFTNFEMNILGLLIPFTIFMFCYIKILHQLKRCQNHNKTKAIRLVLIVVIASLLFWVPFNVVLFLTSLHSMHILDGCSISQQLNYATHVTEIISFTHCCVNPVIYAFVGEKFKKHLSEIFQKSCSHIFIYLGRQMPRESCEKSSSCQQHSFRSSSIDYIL

[11] = biological target: T3, cynomolgus CCR8; experiment: FACS on HEK293-cynomolgus CCR8 cells; remark: listed apart in the source
[12] = biological target: T2, human CCR8; experiment: FACS on HuT78 cells (endogenous human CCR8)
Experimental: HuT78 cells expressing endogenous human CCR8 were used for determining binding affinities of selected affinity matured anti-CCR8 antibodies. Briefly, a total of […] cells for each well were seeded in 96-well plates and washed with FACS buffer (DPBS containing […]) for once. […] Cells were incubated with 50 μL of diluted antibodies at 4° C. for 1 hour. After primary antibody incubation, cells were washed for 3 times by FACS buffer. Then, cells were stained by Alexa Fbu647 labeled anti-human IgG secondary antibody (Jackson ImmunoResearch, #109606170) at 1:600 dilution in FACS buffer for 0.5 hour at 4° C. After 3 times washed, flow cytometry (Sartourius, iQue3) was performed to measure the binding affinities of antibodies. […]

[13] = biological target: T2, human CCR8; experiment: FACS on HuT78 cells (endogenous human CCR8); remark: listed apart in the source
[14] = biological target: T2, human CCR8; experiment: FACS, competition with CCL1 on CHO-K1-human CCR8 cells
[15] = biological target: T2, human CCR8; experiment: as above; remark: listed apart in the source
[16] = biological target: T2, human CCR8; experiment: cell-based or functional assay; remark: listed apart in the source
[17] = biological target: T2, human CCR8; experiment: cell-based or functional assay; remark: listed apart in the source

| Binder | EC50, ADCC reporter, F variant CD16a/NFAT-Jurkat, target CHO-K1-human CCR8 cells [1] | EC50, ADCC reporter, F variant CD16a/NFAT-Jurkat, target HuT78 cells [1] | EC50, ADCC reporter, V variant CD16a/NFAT-Jurkat, target CHO-K1-human CCR8 cells [1] | EC50, ADCC reporter, V variant CD16a/NFAT-Jurkat, target HuT78 cells [1] | Max (RLU), ADCC reporter, F variant CD16a/NFAT-Jurkat, target CHO-K1-human CCR8 cells [1] | Max (RLU), ADCC reporter, F variant CD16a/NFAT-Jurkat, target HuT78 cells [1] | Max (RLU), ADCC reporter, V variant CD16a/NFAT-Jurkat, target CHO-K1-human CCR8 cells [1] | Max (RLU), ADCC reporter, V variant CD16a/NFAT-Jurkat, target HuT78 cells [1] | EC50, ADCC with human PBMCs, target CHO-K1-human CCR8 cells [2] | Max specific lysis (%), ADCC with human PBMCs, target CHO-K1-human CCR8 cells [2] | IC50, inhibition of CCL1 induced β-Arrestin recruitment, CHO-K1-human CCR8 β-Arrestin cells [3] | IC50, blocking of CCL1 induced cell migration [16] | also measured |
| --- | --- | --- | --- | --- | --- | --- | --- | --- | --- | --- | --- | --- | --- |
| B1 | 5.6 pM | 16.4 pM | 7.25 pM | 20.3 pM | 8.28e+06 RLU | 1.59e+07 RLU | 3.93e+06 RLU | 8.7e+06 RLU | 0.085 pM | 46.6% | 2090 pM | – | EC50, ADCC with human PBMCs (LDH release), target TALL-1 cells [4]: 0.682 pM; EC50 [5]: 328 pM |
| B2 | – | – | – | – | – | – | – | – | – | – | – | – | IC50, inhibition of CCL1 induced β-Arrestin recruitment [6]: 800 pM; Max Inhibition (%), CCL1 induced β-Arrestin recruitment [6]: 85.2%; IC50, blocking of cell migration induced by CCL1 [7]: 849 pM; EC50 [8]: 79.7 pM; Max MFI [8]: 648000 MFI; EC50 [9]: 158 pM; Max MFI [9]: 210000 MFI; EC50 [10]: 137 pM; Max MFI [10]: 4.6e+06 MFI; EC50 [11]: 262 pM; Max MFI [11]: 4.48e+06 MFI; EC50 [12]: 278 pM; Max MFI [12]: 30200 MFI; EC50 [13]: 735 pM; Max MFI [13]: 57900 MFI; IC50 [14]: 98.8 pM; Max Inhibition (%) [14]: 100%; IC50 [15]: 283 pM; Max Inhibition (%) [15]: 99.5% |
| B3 | – | – | – | – | – | – | – | – | – | – | – | 2950 pM | – |
| B4 | 4.05 pM | 8.69 pM | 5.6 pM | 11.4 pM | 8.18e+06 RLU | 1.48e+07 RLU | 3.94e+06 RLU | 8.64e+06 RLU | 0.136 pM | 44.2% | 1160 pM | – | – |
| B5 | – | – | – | – | – | – | – | – | – | – | – | 1920 pM | IC50, inhibition of CCL1 induced β-Arrestin recruitment [17]: 8640 pM |

From patent publication US20250034266A1 (ZAI LAB SHANGHAI, published 2025)
